Earlier results, collected in publication PMC4643947.
Read-outs that look alike come from different tables or passages of the source.

Assays:
[1] = target: Nrf2 14mer peptide (Homo sapiens)
[2] = target: Nrf2 10mer peptide (Homo sapiens)
p62 (Homo sapiens) [3] = target: p62 (Homo sapiens) (UniProt Q13501)
p62 (Homo sapiens) [4] = target: p62 (Homo sapiens) (UniProt Q13501); remark: listed apart in the source

Kd [1]: 61.9 nM | Kd [2]: 30.1 nM | Kd (p62 (Homo sapiens) [3]): 2000 nM | Kd (p62 (Homo sapiens) [4]): 118 nM
Substance: Keap1 (from UniProt Q14145)
